# Reference: PMC3216659 (Molecular Biology of the Cell, 2011)
# B1: MBP–Duo1 complex (complex, S. cerevisiae)
# chain 1: MSEDKAKLGTTRSATEYRLSIGSAPTSRRSSMGESSSLMKFADQEGLTSSVGEYNENTIQQLLLPKIRELSDSIITLDSNFTRLNFIHESLADLNESLGSLLYGIMSNSWCVEFSQAPHDIQDDLIAIKQLKSLEDEKNNLVMELSNMERGIKRKKDEQGENDLAKASQNKQFNQPLFPSSQVRKYRSYDNRDKRKPSKIGNNLQVENEEDYEDDTSSEASFVLNPTNIGMSKSSQGHVTKTTRLNNNTNSKLRRKSILHTIRNSIASGADLPIENDNVVNLGDLHPNNRISLGSGAARVVNGPVTKNRNSMFSGRAERKPTESRHSVAKKTEKKINTRPPFR
# chain 2: MSEQSQLDDSTIDKLIPQIFNEMRSNLNNTTNKFPKSTGGGASDNISANSNSIRSFNSITTQSLLKESESLDKITAMIKNVTAALKNNLPVYVNQVHEVCKSTNSILDSWINIHSQAGYIHKLMSDQTYLKLINDRLHNENVNTNDEDGSTLHNVIALKKKEILDLRQKLENRKGEKDAAPAKPPNQGLNPRYGVQSGRRPVPSAGISNNGRVRKTHVPASKRPSGIPRVTNRWTKPTASSSRKMFR
# chain 3: MDSASKEETLEKLDQEITVNLQKIDSNLSFCFHKITQDIIPHVATYSEICERIMDSTEWLGTMFQETGLVNLQANAAAPVGNAPVKSLVSNNVGIFPTSAEEASRQSQTDNGPNEADSAVHVNRDVHSMFNNDSIDDFHTANITSTGQILKLPDSSDEDTGSEAVPSREQTDLTGEGHGGADDEQDESTIQRQSRKRKISLLLQQQYGSSSSMVPSPIVPNKMRKQLAHEEHINNDGDNDDENSNNIESSPLKQGHHHPKGQADDNNEGPDEEESTKEVPKPGTIIHFSTNR
# chain 4: MGESLDRCIDDINRAVDSMSTLYFKPPGIFHNAILQGASNKASIRKDITRLIKDCNHDEAYLLFKVNPEKQSVSRRDGKEGVFDYVIKRDTDMKRNRRLGRPGEKPIIHVPKEVYLNKDRLDLNNKRRRTATTSGGGLNGFIFDTDLIGSSVISNSSSGTFKALSAVFKDDPQIQRLLYALENGSVLMEEESNNQRRKTIFVEDFPTDLILKVMAEVTDLWPLTEFKQDYDQLYHNYEQLSSKLRFIKKEVLLQDDRLKTMSQYHPSSSHDVAKIIRKEKDEIRRLEMEIANLQE
# chain 5: MTDALEQSVLALEGTVSVLKDSVESLKCANEPSTNLASTMLQTKRVFRLVPEYDVERSKLDLIEEVEPLVRTLGDKLRKSMGRMQRELDTLQQTYELNDLRLKKNISMDDDDALNSPDMGQEYEGRDADDVVMMASSTNEELEELKKLKEKKKQLENKLEILKQK
# chain 6: MMASTSNDEEKLISTTDKYFIEQRNIVLQEINETMNSILNGLNGLNISLESSIAVGREFQSVSDLWKTLYDGLESLSDEAPIDEQPTLSQSKTK
# chain 7: MDSIDEQIAIKRKELQSLQKITSLTDGLKIQLTELNEQIKEMGMNADSVAQLMNNWDSIINNISQASLGLLQYAEGDYEIGPWKDSKKKESEQSNETGLEAQENDKNDEDNDEDEDLVPLPETMVRIRVDGNE
# chain 8: MEHNLSPLQQEVLDKYKQLSLDLKALDETIKELNYSQHRQQHSQQETVSPDEILQEMRDIEVKIGLVGTLLKGSVYSLILQRKQEQESLGSNSK
# chain 9: MENPHEQVQANILSRIIGNVKRLNESVAILNQELVTINNRNKNLEIMGAICDNYHSSVQFNLEATNNKKPPL
# chain 10: MNANKQRQYNQLAHELRELQTNLQETTKQLDIMSKQCNENLVGQLGKVHGSWLIGSYIYYMEQMLGKTQ
# B2: MBP–Spc34 complex (complex, S. cerevisiae)
# chain 1: B1 chain 1
# chain 2: B1 chain 2
# chain 3: B1 chain 3
# chain 4: B1 chain 4
# chain 5: B1 chain 5
# chain 6: B1 chain 6
# chain 7: B1 chain 7
# chain 8: B1 chain 8
# chain 9: B1 chain 9
# chain 10: B1 chain 10
# B3: MBP–Spc19 complex (complex, S. cerevisiae)
# chain 1: B1 chain 1
# chain 2: B1 chain 2
# chain 3: B1 chain 3
# chain 4: B1 chain 4
# chain 5: B1 chain 5
# chain 6: B1 chain 6
# chain 7: B1 chain 7
# chain 8: B1 chain 8
# chain 9: B1 chain 9
# chain 10: B1 chain 10
# Biological target: the molecule itself
# Assay: negative-stain EM with 2D class averages
row,Protein,stoichiometry N
1,B1,2
2,B2,2
3,B3,2
